Test: Local delivery of infliximab to small intestinal tissue after intrajejunal or intravenous dosing, LC-MS/MS
Format: in vivo, Wistar rats
Conditions: rat, 5 h
Excerpt: Adult non-diabetic male Wistar rats were fasted overnight but given free access to water and subsequently dosed via intrajejunal injection (IJ) with infliximab and one of various choline-based ionic liquids, dosed via IJ with infliximab and saline, or dosed via intravenous injection (IV) with infliximab and saline.

## infliximab
Intrajejunal injection (IJ)
  % of the injected infliximab dose in the local small intestinal tissue: 0.06%
Intravenous injection (IV), in saline
  % of the injected antibody dose in the small intestinal tissue: 0.95%

From patent US20240067716A1, “IONIC LIQUID FORMULATIONS FOR TREATING INFLAMMATORY AND AUTOIMMUNE DISEASES” (i2O Therapeutics, Inc., priority 2021, published 2024)
